Reference: article PMC12386978 (2025)

B1: NLuc-mCRY1 (wild-type) [mouse (printed as mCRY1)] / CLuc-BMAL1 [not stated] (parent complex)
chain 1: MGVNAVHWFRKGLRLHDNPALKECIQGADTIRCVYILDPWFAGSSNVGINRWRFLLQCLEDLDANLRKLNSRLFVIRGQPADVFPRLFKEWNITKLSIEYDSEPFGKERDAAIKKLATEAGVEVIVRISHTLYDLDKIIELNGGQPPLTYKRFQTLVSKMEPLEMPADTITSDVIGKCMTPLSDDHDEKYGVPSLEELGFDTDGLSSAVWPGGETEALTRLERHLERKAWVANFERPRMNANSLLASPTGLSPYLRFGCLSCRLFYFKLTDLYKKVKKNSSPPLSLYGQLLWREFFYTAATNNPRFDKMEGNPICVQIPWDKNPEALAKWAEGRTGFPWIDAIMTQLRQEGWIHHLARHAVACFLTRGDLWISWEEGMKVFEELLLDADWSINAGSWMWLSCSSFFQQFFHCYCPVGFGRRTDPNGDYIRRYLPVLRGFPAKYIYDPWNAPEGIQKVAKCLIGVNYPKPMVNHAEASRLNIERMKQIYQQLSRYRGLGLLASVPSNSNGNGGLMGYAPGENVPSCSSSGNGGLMGYAPGENVPSCSGGNCSQGSGILHYAHGDSQQTHSLKQGRSSAGTGLSSGKRPSQEEDAQSVGPKVQRQSSN
chain 2: not shown

Variants of: B1
Assay: split-luciferase complementation assay; HEK293T cells, n = 3; read off a plot
chain 1 K151Q gave a response of about 3200. chain 1 K151R showed a response of about 3900.
